Experimental data taken from publication PMC3093654.

Target: alpha-thrombin (UniProt P00734;P00734 328-363;364-622)
Assay: SPR imaging

Does AGTCCGTGGTAGGGCAGGTTGGGGTGACTTTTTTTTTTTTTTTT (ssDNA, 3'-NH2, surface-attached to pGlu-MUAM on gold) [Da thrombin aptamer] bind?
Result: binds
